Measured values published in patent publication US8026218 (UNIVERSITY OF ARIZONA, dated 2011).
Like-named read-outs stand apart in the source and are kept apart here. Square brackets hold non-standard residues; d marks the D form. Primed or numbered codes have the meaning given here. Ends that are not written are not given here. * marks the point of attachment. NH(3,5-(CF3)2-benzyl) = FC(F)(F)c1cc(CN*)cc(C(F)(F)F)c1; OBzl(3,5-(CF3)2) = FC(F)(F)c1cc(CO*)cc(C(F)(F)F)c1; O‑Bzl(CF3)2″ = C-terminal Bzl(CF3)2 ester; Phe(4-Cl) = N[C@@H](Cc1ccc(Cl)cc1)C(=O)O; Phe(4-F) = N[C@@H](Cc1ccc(F)cc1)C(=O)O; Aib = CC(C)(N)C(=O)O

Legend:
[1] = target: guinea pig NK1 receptor (guinea pig, UniProt P30547 1-407); experiment: cell-based or functional assay
[2] = target: µ opioid receptor of the guinea pig isolated ileum (guinea pig, UniProt P97266 1-98); experiment: cell-based or functional assay
[3] = target: T1, human δ opioid receptor (human, UniProt P41143 1-372); experiment: competition vs [3H]DPDPE, hDOR cell membranes
T1 construct: whole, on cells; membrane preparations of the transfected cells were used; also called hDOR; DOR
T1 sequence (P41143 whole entry, stated change not applied): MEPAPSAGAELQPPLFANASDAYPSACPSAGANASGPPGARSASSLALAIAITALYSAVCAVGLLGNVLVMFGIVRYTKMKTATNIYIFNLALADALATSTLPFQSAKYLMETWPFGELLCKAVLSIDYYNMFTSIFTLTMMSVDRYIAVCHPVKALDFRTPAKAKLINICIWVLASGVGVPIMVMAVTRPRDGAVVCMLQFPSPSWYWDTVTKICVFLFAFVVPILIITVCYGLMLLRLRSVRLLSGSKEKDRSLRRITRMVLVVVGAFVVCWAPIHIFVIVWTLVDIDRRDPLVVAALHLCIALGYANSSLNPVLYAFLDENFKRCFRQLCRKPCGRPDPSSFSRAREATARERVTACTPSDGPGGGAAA

[4] = target: T1, human δ opioid receptor; experiment: cell-based or functional assay
[5] = target: T2, rat µ opioid receptor (rat, UniProt P33535 1-398); experiment: cell-based or functional assay
[6] = target: T3, rat NK1 receptor (rat, UniProt P14600 1-407); experiment: competition vs [3H]Substance P, rNK1 CHO cell membranes
T3 construct: whole, on cells; membrane preparations of the transfected cells were used; also called rNK1; rNK-1
T3 sequence (P14600 whole entry): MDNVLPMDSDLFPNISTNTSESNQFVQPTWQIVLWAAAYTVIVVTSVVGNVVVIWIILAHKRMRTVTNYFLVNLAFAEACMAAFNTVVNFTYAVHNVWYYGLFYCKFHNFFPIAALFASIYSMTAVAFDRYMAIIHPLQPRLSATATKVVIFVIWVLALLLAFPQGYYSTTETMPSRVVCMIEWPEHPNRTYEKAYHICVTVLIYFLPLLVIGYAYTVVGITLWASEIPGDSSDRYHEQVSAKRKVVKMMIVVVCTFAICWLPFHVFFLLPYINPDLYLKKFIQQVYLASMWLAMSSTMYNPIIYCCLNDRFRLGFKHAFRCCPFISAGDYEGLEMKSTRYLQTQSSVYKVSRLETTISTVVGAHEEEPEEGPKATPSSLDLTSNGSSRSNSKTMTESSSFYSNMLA

[7] = target: T2, rat µ opioid receptor; experiment: competition vs [3H]DAMGO, rMOR cell membranes
[8] = target: T4, human NK1 receptor (human, UniProt P25103 1-407); experiment: competition vs [3H]Substance P, hNK1 CHO cell membranes
T4 construct: whole, on cells; membrane preparations of the transfected cells were used; also called hNK1; human neurokinin-1 receptor

[9] = target: T2, rat µ opioid receptor; experiment: competition vs [3H]DAMGO, rMOR cell membranes; remark: listed apart in the source
[10] = target: T1, human δ opioid receptor; experiment: cell-based or functional assay; remark: listed apart in the source
[11] = target: T2, rat µ opioid receptor; experiment: cell-based or functional assay; remark: listed apart in the source
[12] = target: T4, human NK1 receptor; experiment: competition vs [3H]Substance P, hNK1 CHO cell membranes; remark: listed apart in the source
[13] = target: T3, rat NK1 receptor; experiment: competition vs [3H]Substance P, rNK1 CHO cell membranes; remark: listed apart in the source
[14] = target: T1, human δ opioid receptor; experiment: competition vs [3H]DPDPE, hDOR cell membranes; remark: listed apart in the source
[15] = target: T4, human NK1 receptor; experiment: competition vs [3H]Substance P, hNK1 CHO cell membranes; remark: listed apart in the source
[16] = target: T5, human δ opioid receptor (human, UniProt P41143 1-372); experiment: competition vs [3H]DPDPE, membranes of hDOR-transfected HN9.10 cells
T5 construct: whole, on cells; Assayed as membrane preparations of transfected cells; also called hDOR; DOR
T5 sequence (P41143 whole entry, stated change not applied): as the sequence (P41143 whole entry, stated change not applied) above

[17] = target: T5, human δ opioid receptor; experiment: cell-based or functional assay; remark: listed apart in the source
[18] = target: T6, rat NK1 receptor (rat, UniProt P14600 1-407); experiment: competition vs [3H]substance P, membranes of rNK1-transfected CHO cells
T6 construct: whole, on cells; Assayed as membrane preparations of transfected CHO cells; also called rNK1; rNK-1
T6 sequence (P14600 whole entry): as the sequence (P14600 whole entry) above

guinea pig NK1 receptor, sequence (P30547 whole entry): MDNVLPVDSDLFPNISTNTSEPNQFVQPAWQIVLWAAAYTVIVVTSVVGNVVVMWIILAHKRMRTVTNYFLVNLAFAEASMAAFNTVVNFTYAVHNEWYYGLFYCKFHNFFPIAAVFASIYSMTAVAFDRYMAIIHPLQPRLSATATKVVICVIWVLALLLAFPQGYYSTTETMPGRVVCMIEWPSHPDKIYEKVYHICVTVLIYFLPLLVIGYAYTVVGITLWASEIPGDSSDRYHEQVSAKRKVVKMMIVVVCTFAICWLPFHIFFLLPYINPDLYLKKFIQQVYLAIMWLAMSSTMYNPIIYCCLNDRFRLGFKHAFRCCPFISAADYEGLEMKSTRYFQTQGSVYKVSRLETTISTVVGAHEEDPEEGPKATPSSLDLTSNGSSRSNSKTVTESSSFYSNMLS
µ opioid receptor of the guinea pig isolated ileum, sequence (P97266 whole entry): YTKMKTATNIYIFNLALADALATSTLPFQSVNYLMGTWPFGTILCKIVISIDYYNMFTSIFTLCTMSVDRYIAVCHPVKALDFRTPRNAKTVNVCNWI
T4 sequence (P25103 whole entry): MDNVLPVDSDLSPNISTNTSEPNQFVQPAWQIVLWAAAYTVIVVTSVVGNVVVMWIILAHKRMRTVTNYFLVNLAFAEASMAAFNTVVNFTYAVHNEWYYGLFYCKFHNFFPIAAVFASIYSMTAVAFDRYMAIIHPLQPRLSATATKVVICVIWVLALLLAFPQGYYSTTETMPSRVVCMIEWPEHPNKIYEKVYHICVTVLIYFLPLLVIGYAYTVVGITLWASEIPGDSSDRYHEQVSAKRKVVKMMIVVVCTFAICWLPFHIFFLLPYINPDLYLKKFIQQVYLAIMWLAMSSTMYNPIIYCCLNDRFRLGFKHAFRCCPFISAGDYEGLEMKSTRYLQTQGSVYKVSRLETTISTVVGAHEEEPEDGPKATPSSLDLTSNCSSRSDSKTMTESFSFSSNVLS
T2 sequence (P33535 whole entry): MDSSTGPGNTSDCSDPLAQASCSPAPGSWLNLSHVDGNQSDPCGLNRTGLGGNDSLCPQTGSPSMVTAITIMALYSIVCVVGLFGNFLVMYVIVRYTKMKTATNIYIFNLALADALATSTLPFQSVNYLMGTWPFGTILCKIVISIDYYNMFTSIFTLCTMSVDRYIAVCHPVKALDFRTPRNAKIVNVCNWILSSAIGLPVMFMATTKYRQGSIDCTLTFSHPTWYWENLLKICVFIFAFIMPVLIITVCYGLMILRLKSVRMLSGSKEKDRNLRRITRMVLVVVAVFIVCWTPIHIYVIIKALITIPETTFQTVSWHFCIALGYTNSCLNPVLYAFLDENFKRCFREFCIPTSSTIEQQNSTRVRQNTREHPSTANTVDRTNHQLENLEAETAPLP

B1: TyrDAlaGlyPheDPheProLeuTrpOBn(CF3)2 (peptide)
peptide: Y[dA]GF[dF]PLW-{OBzl(3,5-(CF3)2)}
notes: also called TY007
Q: Which results are given for B1?
A: GPI/LMMP SP antagonist Ke [1]: 69.6 nM; GPI/LMMP, inhibition at 1 mM [2]: 9%; Ki [3]: 110 nM; GTP binding EC50 [4]: 16.7 nM; GTP binding Emax [4]: 22.9%; GTP binding EC50 [5]: 345 nM; GTP binding Emax [5]: 23.6%; IC50 [6]: 66.7 nM; Ki [7]: 410 nM

B2: TyrDAlaGlyPhePheProLeuTrpOBn(CF3)2 (peptide)
peptide: Y[dA]GFFPLW-{OBzl(3,5-(CF3)2)}
notes: also called TY003
Q: What does the source list for B2?
A: GPI/LMMP SP antagonist Ke [1]: 14.4 nM; GPI/LMMP, inhibition at 1 mM [2]: 7%; Ki [3]: 14.6 nM; GTP binding EC50 [4]: 20.8 nM; GTP binding Emax [4]: 39%; GTP binding EC50 [5]: 58.7 nM; GTP binding Emax [5]: 36.3%; IC50 [6]: 19.3 nM; Ki [7]: 28.3 nM

B3: TyrDAlaGlyPheGlyProLeuTrpOBn(CF3)2 (peptide)
peptide: Y[dA]GFGPLW-{OBzl(3,5-(CF3)2)}
modifications: also: TFA salt
notes: also called TY006
Q: Which “GPI/LMMP SP antagonist Ke” value [1] does the source give for B3 here?
A: 5.4 nM

Q: What about the “GPI/LMMP IC50” value [2] of the same binder?
A: 384 nM

Q: What about the Ki [3] of the same binder?
A: 36.1 nM

Q: And the “GTP binding EC50” value [4]?
A: 50.2 nM

Q: What about the “GTP binding Emax” value [4] of the same binder?
A: 33.6%

Q: What about the “GTP binding EC50” value [5] of the same binder?
A: 41.7 nM

Q: And the “GTP binding Emax” value [5]?
A: 35.9%

Q: What about the IC50 [6] of the same binder?
A: 15.6 nM

Q: What about the Ki [7] of the same binder?
A: 27 nM

B4: TyrDAlaGlyPheLeuProLeuTrpOBn(CF3)2 (peptide)
peptide: Y[dA]GFLPLW-{OBzl(3,5-(CF3)2)}
notes: also called TY004
Q: B4 was tested. Which “GPI/LMMP SP antagonist Ke” value [1] did it give?
A: 19.4 nM

Q: What about the “GPI/LMMP IC50” value [2] of the same binder?
A: 341 nM

Q: What about the Ki [3] of the same binder?
A: 5 nM

Q: And the “GTP binding EC50” value [4]?
A: 9.6 nM

Q: And the “GTP binding Emax” value [4]?
A: 42.5%

Q: And the “GTP binding Emax” value [5]?
A: 44.5%

Q: And the IC50 [6]?
A: 20.9 nM

Q: And the Ki [7]?
A: 23.3 nM

B5: Tyr-D-Ala-Gly-pClPhe-O-3′,5′(CF3)2-Bzl (peptide)
peptide: Y[dA]G[Phe(4-Cl)]-{OBzl(3,5-(CF3)2)}
notes: also called NP52
Q: Which Ki [8] does the source give for B5 here?
A: 8.04 nM

B6: Tyr-DAla-Gly-Phe-Aib-Trp-O-Bzl(CF3)2 (peptide)
peptide: Y[dA]GF[Aib]W-{O‑Bzl(CF3)2″}
notes: also called NP41
Q: With B6 as the binder, how does the Ki [9] read?
A: 13.3 nM

Q: What about the “GTP EMax” value [10] of the same binder?
A: 65

Q: What about the “GTP EMax” value [11] of the same binder?
A: 36

Q: And the Ki [12]?
A: 0.008 nM

Q: And the Ki [13]?
A: 3.4 nM

Q: What about the Ki [14] of the same binder?
A: 24.2 nM

B7: Tyr-DAla-Gly-Phe-γ-Abu-Trp-O-Bzl(CF3)2 (peptide)
peptide: Y[dA]GFXW-{O‑Bzl(CF3)2}
modifications: not fully specified (residue 5); printed as Tyr-DAla-Gly-Phe-γ-Abu-Trp-O-Bzl(CF3)2
notes: also called NP34
Q: For B7, which Ki [9] is on record?
A: 2.2 nM

Q: What about the “GTP EMax” value [10] of the same binder?
A: 40

Q: And the “GTP EMax” value [11]?
A: 27

Q: What about the Ki [12] of the same binder?
A: 0.001 nM

Q: And the Ki [13]?
A: 7.4 nM

Q: And the Ki [14]?
A: 25.4 nM

B8: Tyr-D-Ala-Gly-Phe-Trp-O-3′,5′(CF3)2-Bzl (peptide)
peptide: Y[dA]GFW-{OBzl(3,5-(CF3)2)}
notes: also called NP36
Q: How did the Ki [8] turn out when B8 was run?
A: 0.0005 nM

B9: DmtDAlaGlyPheNleProLeuTrpNHBn-3-(CF3) (peptide)
peptide: YAGFXPLW
modifications: Dmt at 1 (written Y); D-Ala at 2; Nle at 5 (written X); C-terminal NH-3-Bn(CF3) amide
notes: also called TY053
Q: B9 was tested. Which Ki [15] did it give?
A: 1.04 nM

B10: H-Tyr-D-Ala-Gly-Phe-Met-Pro-Leu-Trp-NH-3,5-Bzl(CF3)2 (peptide)
peptide: H-Y[dA]GFMPLW-{NH(3,5-(CF3)2-benzyl)}
modifications: also: TFA salt
notes: TFA salt; also called TY027; TY27
Q: What does the source list for B10?
A: LogIC50 [16]: -8.8; [35S]GTPγS binding EC50 [17]: 8.6 nM; [35S]GTPγS binding Emax [17]: 58%; [35S]GTPγS binding LogEC50 [17]: -8.1; Ki [18]: 7.3 nM; LogIC50 [18]: -7.6

B11: DmtDAlaGlyPheNleProLeuTrpNHBn(CF3)2 (peptide)
peptide: YAGFXPLW
modifications: Dmt at 1 (written Y); D-Ala at 2; Nle at 5 (written X); C-terminal NH-3,5-Bzl(CF3)2 amide
notes: also called TY050
Q: With B11 as the binder, how does the Ki [15] read?
A: 0.075 nM

B12: Tyr-D-Ala-Gly-pFPhe-O-3′,5′(CF3)2-Bzl (peptide)
peptide: Y[dA]G[Phe(4-F)]-{O‑3,5‑Bzl(CF3)2}
notes: also called NP62
Q: For B12, which Ki [8] is on record?
A: 0.2 nM
